Laboratory results from patent US7772181B2, “Personal care compositions comprising modified variant Bowman Birk Protease Inhibitors” (Danisco US Inc., priority 2008, dated 2010).
Substitutions are numbered along the chain they refer to. Names may count otherwise. Marks after values point to notes of the source that are not given here. Blank lines part the entries; values can stand above or below the molecule they belong to.

Molecular target: T1, bovine pancreatic trypsin (Bos taurus, UniProt P00760)
T1 construct: purchased Worthington (Worthington Biochemical Corp.)
T1 sequence (P00760 24-246): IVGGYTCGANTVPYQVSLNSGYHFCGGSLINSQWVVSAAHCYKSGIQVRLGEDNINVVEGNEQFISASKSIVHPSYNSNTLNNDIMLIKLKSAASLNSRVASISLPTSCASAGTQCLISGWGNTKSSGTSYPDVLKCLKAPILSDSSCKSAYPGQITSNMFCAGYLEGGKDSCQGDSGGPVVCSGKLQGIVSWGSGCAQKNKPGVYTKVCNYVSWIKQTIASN
Assay: BBIt-AV:BCE activity ratio, microtiter plate screens (primary, quadruplicate secondary)
Format: biochemical
Conditions: for BBIt-AV:BCE activity ratio relative to unmodified BBIt-AV: after activation with reducing agent (2-mercaptoethanol); for relative activity of the amino acid substitution (BBI:BCE activity ratio vs BBIt-AV), amino acid present in BBItc-AV / relative activity of the amino acid substitution (BBI:BCE activity ratio vs BBIt-AV), amino acid present in BBIdb-AV / relative activity of the amino acid substitution (BBI:BCE activity ratio vs BBIt-AV), amino acid present in BBIsb3-AV: single substitution in BBIt-AV, in the presence of reducing agent
Experimental: The cultures in each master plate were thawed and a pin replicator was used to inoculate a new sterile microtiter plate containing 150 μl of Luria broth with 5 μg/ml chloramphenicol in each well. The plates were grown for ˜10 hrs in a humidified and aerated box as described above. For controls, the cultures in two wells were replaced with BBI and BBI-AV cultures that had been grown concurrently in 15 ml culture tubes (5 ml of Luria broth with 5 μg/ml chloramphenicol). After the cultures were grown, the plate was used to inoculate two duplicate 96-well filter plates (Millipore, MSGV2210) containing 150 μl of MBD medium (Vogtentanz et al., 2007) with 5 μg/ml chloramphenicol in each well by using a pin replicator. The duplicate plates were grown for ˜14 hours (as above, with plastic spacers placed between the stacked plates to allow for efficient air flow around the plates) and then 2-mecaptoethanol was added to each well in one of the plates to a final concentration of 2 mM. The plates were then grown for an additional ˜46 hours. The 96-well filter plates containing the culture broth (with or without added 2-mecaptoethanol) were then assayed for BBI and BCE activity.
Libraries were analyzed using dilutions of cultures grown in 96-well plates. Typically, the culture broth from each well was diluted (200 fold) in Assay Buffer (100 mM Tris pH 8.6, 0.005% Tween 80) and transferred to a second microtiter plate (CoStar 9017, Corning, Inc., Corning, N.Y.). Then, 20 μl of the diluted samples were transferred to a third microtiter plate. A standard curve was created by adding 20, 10, 5 or 2.5 μl of the diluted sBBI (SEQ ID NO:13) control culture to empty wells. Then, 80 μL of 50 ng/ml trypsin (bovine pancreatic trypsin, Worthington Biochemical Corp., Lakewood, N.J.) (prepared from a 1 mg/mL stock solution diluted into Assay Buffer) was added to each well of the plate. The reactions were mixed and incubated 15 min at room temperature. After the incubation, 100 μL of 0.5 mg/ml trypsin substrate (succinyl-Ala-Ala-Pro-Arg-para-nitroanilide, Bachem Bioscience, Inc., King of Prussia, Pa.), diluted in Assay Buffer from a 100 mg/ml solution in DMSO, was added to each well, mixed, and the absorbance at 405 nm was monitored for 15 min, with 1 time point recorded every 12 sec using a Spectra Max 250 (Molecular Devices). The data points were used to determine the rate for each reaction. The standard curve was generated by plotting the reaction rate versus the BBI volume and was fitted to a four-parameter equation. All data fitting was done using software supplied by the manufacturer (Molecular Devices Corp., Sunnyvale, Calif.). The activity of each BBIt-AV variant was calculated from the standard curve. Thus, the activities of all modified variant proteins were determined relative to the activity in the sBBI control (BBI-WT) culture.
The concentration of BCE was determined by an activity assay using purified BCE as a standard as described above and by (Vogtentanz et al. 2007). For the analysis of libraries grown in 96-well microtiter plates, 20 μl of culture broth were transferred to each well of a new microtiter plate. A standard curve was created by adding 20, 10, 5 or 2.5 μl of the diluted BBI-WT control culture to these empty wells. Then, 180 μl of the BCE substrate (0.25 μg/ml in Assay Buffer), 4-nitrophenyl β-D-cellobioside (Sigma, St. Louis, Mo.), was added to the plate. The plate was mixed and the absorbance at 405 nm monitored for 15 min, with 1 time point recorded every 12 s using a Spectra Max 250 (Molecular Devices Corp., Sunnyvale, Calif.). The data points were used to determine the rate for each reaction. The standard curve was generated by plotting rate versus culture volume and was fit to a quadratic curve. The BCE concentration in each variant culture was determined relative to the standard control culture. […]

BBIt-AV:BCE activity ratio relative to unmodified BBIt-AV: three-fold greater
B1: BBIt-AV-F50T: BBIt-AV (SEQ ID NO:187) with single substitution F50T (protein)
chain: DDESSKPCCDQCACTKSNPPQCRCSDMRLNSCHSACKSCACYNLYGWTCTCVDITDFCYEPCKPSE
modifications: synthetic BBIt-AV sequence
initial BBIt-AV:BCE activity ratio relative to unmodified BBIt-AV (prior to activation): comparable to that of the unmodified BBIt-AV parent

B2: S25A: BBIt-AV (SEQ ID NO:187) with single substitution S25A (protein)
chain: B1 chain with S25A, T50F
modifications: synthetic BBIt-AV sequence
relative activity of the amino acid substitution (BBI:BCE activity ratio vs BBIt-AV), amino acid present in BBItc-AV: A (+)

B3: F50V: BBIt-AV (SEQ ID NO:187) with single substitution F50V (protein)
chain: B1 chain with T50V
modifications: synthetic BBIt-AV sequence
relative activity of the amino acid substitution (BBI:BCE activity ratio vs BBIt-AV), amino acid present in BBIdb-AV: V (+)

B4: K37S: BBIt-AV (SEQ ID NO:187) with single substitution K37S (protein)
chain: B1 chain with K37S, T50F
modifications: synthetic BBIt-AV sequence
relative activity of the amino acid substitution (BBI:BCE activity ratio vs BBIt-AV), amino acid present in BBIdb-AV: S (+/−)

B5: R23H: BBIt-AV (SEQ ID NO:187) with single substitution R23H (protein)
chain: B1 chain with R23H, T50F
modifications: synthetic BBIt-AV sequence
relative activity of the amino acid substitution (BBI:BCE activity ratio vs BBIt-AV), amino acid present in BBItc-AV: H (−)

B6: Q11R: BBIt-AV (SEQ ID NO:187) with single substitution Q11R (protein)
chain: B1 chain with Q11R, T50F
modifications: synthetic BBIt-AV sequence
relative activity of the amino acid substitution (BBI:BCE activity ratio vs BBIt-AV), amino acid present in BBItc-AV: R (+/−)

B7: A35D: BBIt-AV (SEQ ID NO:187) with single substitution A35D (protein)
chain: B1 chain with A35D, T50F
modifications: synthetic BBIt-AV sequence
relative activity of the amino acid substitution (BBI:BCE activity ratio vs BBIt-AV), amino acid present in BBIsb3-AV: D (+/−)

B8: K37E: BBIt-AV (SEQ ID NO:187) with single substitution K37E (protein)
chain: B1 chain with K37E, T50F
modifications: synthetic BBIt-AV sequence
relative activity of the amino acid substitution (BBI:BCE activity ratio vs BBIt-AV), amino acid present in BBItc-AV: E (+/−)

B9: R23S: BBIt-AV (SEQ ID NO:187) with single substitution R23S (protein)
chain: B1 chain with R23S, T50F
modifications: synthetic BBIt-AV sequence
relative activity of the amino acid substitution (BBI:BCE activity ratio vs BBIt-AV), amino acid present in BBIsb3-AV: S (−−−) (the greater the number of “−”, the greater the difference.)

B10: Q11L: BBIt-AV (SEQ ID NO:187) with single substitution Q11L (protein)
chain: B1 chain with Q11L, T50F
modifications: synthetic BBIt-AV sequence
relative activity of the amino acid substitution (BBI:BCE activity ratio vs BBIt-AV), amino acid present in BBIsb3-AV: L (+/−)**

BBIt-AV:BCE activity ratio relative to unmodified BBIt-AV: best BBIt-AV:BCE-activity ratio
B11: F50R: BBIt-AV (SEQ ID NO:187) with single substitution F50R (protein)
chain: B1 chain with T50R
modifications: synthetic BBIt-AV sequence
relative activity of the amino acid substitution (BBI:BCE activity ratio vs BBIt-AV), amino acid present in BBIsb3-AV: R (++) (the greater the number of “+”, the greater the difference.)
relative activity of the amino acid substitution (BBI:BCE activity ratio vs BBIt-AV), amino acid present in BBItc-AV: R (++) (the greater the number of “+”, the greater the difference.)

B12: A13M: BBIt-AV (SEQ ID NO:187) with single substitution A13M (protein)
chain: B1 chain with A13M, T50F
modifications: synthetic BBIt-AV sequence
relative activity of the amino acid substitution (BBI:BCE activity ratio vs BBIt-AV), amino acid present in BBIsb3-AV: M (+)***

B13: S25E: BBIt-AV (SEQ ID NO:187) with single substitution S25E (protein)
chain: B1 chain with S25E, T50F
modifications: synthetic BBIt-AV sequence
relative activity of the amino acid substitution (BBI:BCE activity ratio vs BBIt-AV), amino acid present in BBIsb3-AV: E (−−−) (the greater the number of “−”, the greater the difference.)

B14: M27I: BBIt-AV (SEQ ID NO:187) with single substitution M27I (protein)
chain: B1 chain with M27I, T50F
modifications: synthetic BBIt-AV sequence
relative activity of the amino acid substitution (BBI:BCE activity ratio vs BBIt-AV), amino acid present in BBIsb3-AV: I (+/−)
relative activity of the amino acid substitution (BBI:BCE activity ratio vs BBIt-AV), amino acid present in BBItc-AV: I (+/−)

B15: M27V: BBIt-AV (SEQ ID NO:187) with single substitution M27V (protein)
chain: B1 chain with M27V, T50F
modifications: synthetic BBIt-AV sequence
relative activity of the amino acid substitution (BBI:BCE activity ratio vs BBIt-AV), amino acid present in BBIdb-AV: V (+/−)

B16: S25T: BBIt-AV (SEQ ID NO:187) with single substitution S25T (protein)
chain: B1 chain with S25T, T50F
modifications: synthetic BBIt-AV sequence
relative activity of the amino acid substitution (BBI:BCE activity ratio vs BBIt-AV), amino acid present in BBIdb-AV: T (+/−)

B17: N18M: BBIt-AV (SEQ ID NO:187) with single substitution N18M (protein)
chain: B1 chain with N18M, T50F
modifications: synthetic BBIt-AV sequence
relative activity of the amino acid substitution (BBI:BCE activity ratio vs BBIt-AV), amino acid present in BBIsb3-AV: M (+/−)

B18: N18I: BBIt-AV (SEQ ID NO:187) with single substitution N18I (protein)
chain: B1 chain with N18I, T50F
modifications: synthetic BBIt-AV sequence
relative activity of the amino acid substitution (BBI:BCE activity ratio vs BBIt-AV), amino acid present in BBIdb-AV: I (+++) (the greater the number of “+”, the greater the difference.)
relative activity of the amino acid substitution (BBI:BCE activity ratio vs BBIt-AV), amino acid present in BBItc-AV: I (+++) (the greater the number of “+”, the greater the difference.)

B19: V52F: BBIt-AV (SEQ ID NO:187) with single substitution V52F (protein)
chain: B1 chain with T50F, V52F
modifications: synthetic BBIt-AV sequence
relative activity of the amino acid substitution (BBI:BCE activity ratio vs BBIt-AV), amino acid present in BBItc-AV: F (+/−)
